This experiment concerns the target 85 kD protein / PI3 kinase (phosphatidylinositol 3' kinase) of BALB/c 3T3 cells (mouse (BALB/c 3T3 cells)). Description: competition: range of peptide concentrations preincubated with 3T3 lysate before immobilised receptor m1; in vitro kinase and PI3 kinase assays.

Square brackets hold non-standard residues; d marks the D form. Ends that are not written are not given here. pY = N[C@@H](Cc1ccc(OP(=O)(O)O)cc1)C(=O)O

85 kD protein / PI3 kinase (phosphatidylinositol 3' kinase) of BALB/c 3T3 cells (mouse (BALB/c 3T3 cells)), sequence (P26450 2-724): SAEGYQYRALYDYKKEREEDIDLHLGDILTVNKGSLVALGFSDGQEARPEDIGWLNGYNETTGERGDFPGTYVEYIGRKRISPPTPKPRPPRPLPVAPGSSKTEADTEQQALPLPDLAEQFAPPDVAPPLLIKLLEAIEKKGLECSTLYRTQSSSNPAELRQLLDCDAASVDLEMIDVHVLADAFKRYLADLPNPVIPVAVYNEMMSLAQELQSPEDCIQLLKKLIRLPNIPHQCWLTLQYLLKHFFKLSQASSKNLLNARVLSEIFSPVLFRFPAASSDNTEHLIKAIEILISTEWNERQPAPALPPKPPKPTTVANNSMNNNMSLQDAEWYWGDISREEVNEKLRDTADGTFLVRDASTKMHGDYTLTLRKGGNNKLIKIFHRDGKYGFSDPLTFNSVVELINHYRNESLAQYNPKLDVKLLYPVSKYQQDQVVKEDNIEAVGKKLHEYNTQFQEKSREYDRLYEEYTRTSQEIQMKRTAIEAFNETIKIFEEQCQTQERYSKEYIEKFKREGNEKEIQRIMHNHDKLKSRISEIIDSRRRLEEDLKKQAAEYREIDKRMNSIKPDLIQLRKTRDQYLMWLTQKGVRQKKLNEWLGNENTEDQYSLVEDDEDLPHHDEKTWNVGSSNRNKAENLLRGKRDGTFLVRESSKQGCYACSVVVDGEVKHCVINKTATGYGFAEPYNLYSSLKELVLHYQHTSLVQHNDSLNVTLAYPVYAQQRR

The IC50 is the concentration needed to halve the response being measured. For the molecule GGYMDMSKDESID[pY]VPMLDM [peptide Y719P], the IC50 was < 5 µM.

Source of the values: patent US6372438.
